The values below come from US20060166920A1, “Oligonucleotide based therapeutics” (Regents of the University of Michigan, priority 2004, published 2006).

Where only a bound is given, the exact number is not on record here.

In data set [1] the test system is human Bcl-xL. In words: Western blot of PC-3 cells transfected with Bcl-xL siRNA cassettes. The class given is cell-based. Conditions: inferred from transfection efficiency of 40% to 50%. How it is done:
(§1) Human prostate cancer PC-3 cells and human breast cancer MCF-7 cells were transfected with the designed Bcl-xL dsRNA (siRNA) cassettes, using a transferrin-liposome system (LipofectaminePlus, Invitrogen). Briefly, 5×10^5 cells were plated per well in 6-well plates. After overnight culture, the cells were 60% to 70% confluent. The transfection was performed according to the manufacturer's instruction, with 0.4 μg siRNA cassette DNA per well. The cells were cultured for 48 hr, then harvested and cell lysates were made for Western blot analysis. 15 μg of protein were added to each lane for SDS-PAGE. […] Similar results were also observed in MCF-7 cells (See, e.g., FIG. 2). […] Therefore, with efficient delivery to the cells, the Bcl-xL siRNA effectively induces cell death.
In general terms: Immunoblotting shows a protein as a band on a membrane.

Data set [2] concerns Bcl-xS. The data set is described as above. The format is cell-based, human. Conditions: 0.4 μg siRNA cassette DNA per well, 48 hr. The method, then: as §1
Data set [3] has as its system human Bcl-xL. Description: Western blot of MCF-7 cells transfected with Bcl-xL siRNA cassettes. The format is cell-based. How it is done:
as §1

Data set [4] relates to Bcl-xS. The data set is described as above. The format is cell-based, human. Conditions: 0.4 μg siRNA cassette DNA per well, 48 hr. How it is done: as §1
The subject of data set [5] is human breast cancer MCF-7 cells. In words: Cell death of MCF-7 cells after transfection. The class given is cell-based. The following applies: MCF-7 cells 48 hr after transfection of siRNA cassette. How it is done:
as §1
MCF-7 and PC-3 cells were transfected with psiBcl-xL (transfection conditions were performed as described above). In some experiments, FuGene 6 (Roche) was used due to low toxicity and high efficiency for plasmid transfection. Briefly, 60% confluent cells were transfected with 1-3 μg psiBcl-xL or psiLuc DNA per well in a 6-well plate (DNA:FuGene 6 ratio=1 μg:3 μl). […] The transfection efficiency of FuGene 6 (as detected by green fluorescence protein (GFP) expression; psiBcl-xL posseses the green fluorescence protein (GFP) gene, See, e.g., FIG. 4) for MCF-7 cells was about 40% -50%. […]

B1: siRNA #2: Bcl-xL small hairpin siRNA cassette, SEQ ID NO: 4, 76 bp (nucleic acid, listed as Homo sapiens)
DNA: GGATCCCGCTTGTCTACGCTTTCCACGCATTGATATCCGTGCGTGGAAAGCGTAGACAAGTTTTTTCCAAAAGCTT
modifications: expressed or natural sequence; the letters are possibly those of the target site
Consider B1, for which, in data set [1], the “Bcl-xL gene knockdown in the cells transfected” value was ~100%. For the same molecule, the “effect on Bcl-xS expression” value in data set [2] and in data set [4] was “without significantly affecting Bcl-xS expression” each time. The “down-regulation of Bcl-xL” value in data set [3] (0.4 μg siRNA cassette DNA per well, LipofectaminePlus, 48 hr) is > 50%. The “Bcl-xL down-regulation in the transfected cells” value in data set [3] (inferred from transfection efficiency of 40%-50%) is given as ~100%. For the same molecule, the cell death result in data set [5] is “up to 50%”.

B2: siRNA #3: Bcl-xL small hairpin siRNA cassette, SEQ ID NO: 5, 76 bp (nucleic acid, listed as Homo sapiens)
DNA: GGATCCCGCGATCCGACTCACCAATACCTTTGATATCCGAGGTATTGGTGAGTCGGATCGTTTTTTCCAAAAGCTT
modifications: expressed or natural sequence; the letters are possibly those of the target site
Turning to B2, the “Bcl-xL gene knockdown in the cells transfected” value in data set [1] is listed as ~100%. Further, the “effect on Bcl-xS expression” value in data set [2] is “without significantly affecting Bcl-xS expression”. In data set [5], the cell death result is recorded as “somewhat less cell death”.
